B1: EHMT1 (parent)
chain: EEINKNISDFGRQQLLPPFPSLHQ

94 variants from the supplement of paper PMC10567573 can be followed below.
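Note: lentivirally expressed fusions sorted by FACS into six bins by GFP to DsRed ratio, PSI derived from sequencing read proportions per bin multiplied by bin number.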

The variants in this series derive from B1. Put plainly: protein stability index of a GFP-peptide fusion (GPS, HEK-293T) (PSI 1-6); higher = more stable. Conditions: c terminus: a fixed tail appended.
With EEINKNVSDFGRQQLLPPFPSLHQ [I7V], the protein stability index amounted to 2.98.

For the variant EEINKNMSDFGRQQLLPPFPSLHQ [I7M], the protein stability index was determined as 3.03.

Regarding EEINKNQSDFGRQQLLPPFPSLHQ [I7Q], the protein stability index came to 3.58.

With EEINKNASDFGRQQLLPPFPSLHQ [I7A], the protein stability index is 2.96.

As for EEINKNNSDFGRQQLLPPFPSLHQ [I7N], the protein stability index was determined as 3.72.

Take EEINKNISDFGRQQMLPPFPSLHQ [L15M]: the protein stability index came to 2.71.

As to EEINKNISDFGRQQGLPPFPSLHQ [L15G], the protein stability index was found to be 3.37.

Turning to EEINKNISDFGRQQHLPPFPSLHQ [L15H], the protein stability index is 2.96.

On to EEINKNISDFGRQQPLPPFPSLHQ [L15P], for which the protein stability index amounted to 2.92.

In the case of EEINKNISDFGRQQLLPPFPSLNQ [H23N], the protein stability index was determined as 3.07.

Regarding EEINKNISDFGRQQLLPPFPSLQQ [H23Q], the protein stability index was determined as 3.02.

For the variant EEINKNISDFGRQQLLPPFPSLLQ [H23L], the protein stability index turned out to be 2.53.

For the variant EEINKNISDFGRQQLLPPFPSLCQ [H23C], the protein stability index came to 2.66.

As to EEINKNISDFGRQQLLPPFPSLMQ [H23M], the protein stability index worked out at 2.48.

EEINKNISDFGRQRLLPPFPSLHQ [Q14R]: the protein stability index worked out at 2.45.

Regarding EEINKNISDFGRQALLPPFPSLHQ [Q14A], the protein stability index was found to be 2.74.

As to EEINKNISDFGRQPLLPPFPSLHQ [Q14P], the protein stability index came out at 2.39.

For EEINKNISDFGRQGLLPPFPSLHQ [Q14G], the protein stability index came out at 2.92.

Take REINKNISDFGRQQLLPPFPSLHQ [E1R]: the protein stability index turned out to be 2.55.

For IEINKNISDFGRQQLLPPFPSLHQ [E1I], the protein stability index worked out at 1.76.

Regarding EEINKNIQDFGRQQLLPPFPSLHQ [S8Q], the protein stability index amounted to 2.64.

On to EEINKNIRDFGRQQLLPPFPSLHQ [S8R], for which the protein stability index is 2.71.

Turning to EEINKNITDFGRQQLLPPFPSLHQ [S8T], the protein stability index is 2.77.

Turning to EEINKNINDFGRQQLLPPFPSLHQ [S8N], the protein stability index is 2.46.

For EEINKNIIDFGRQQLLPPFPSLHQ [S8I], the protein stability index turned out to be 2.82.

As to EEINKNIFDFGRQQLLPPFPSLHQ [S8F], the protein stability index is 2.64.

Take EEINKNILDFGRQQLLPPFPSLHQ [S8L]: the protein stability index came to 2.12.

On to EEINKNISDFGRQQLLPPFQSLHQ [P20Q], for which the protein stability index was found to be 3.31.

With EEINKNISDFGRQQLLPPFHSLHQ [P20H], the protein stability index came out at 2.69.

In the case of EEINKNISDFGRQQLLPPFASLHQ [P20A], the protein stability index was 2.82.

In the case of EEINKNISDFGRQQLLPPFYSLHQ [P20Y], the protein stability index is 2.59.

With EEINKNISDFGRQQLLPPFVSLHQ [P20V], the protein stability index was found to be 3.02.

On to EDINKNISDFGRQQLLPPFPSLHQ [E2D], for which the protein stability index was 2.72.

As to ELINKNISDFGRQQLLPPFPSLHQ [E2L], the protein stability index amounted to 2.21.

Turning to ECINKNISDFGRQQLLPPFPSLHQ [E2C], the protein stability index was found to be 2.35.

Regarding EEINKFISDFGRQQLLPPFPSLHQ [N6F], the protein stability index was 1.91.

In the case of EEINKAISDFGRQQLLPPFPSLHQ [N6A], the protein stability index was 2.85.

As to EEINKYISDFGRQQLLPPFPSLHQ [N6Y], the protein stability index was 2.09.

As for EEINKRISDFGRQQLLPPFPSLHQ [N6R], the protein stability index stood at 2.1.

For EEINKMISDFGRQQLLPPFPSLHQ [N6M], the protein stability index is 2.92.

With EEINKQISDFGRQQLLPPFPSLHQ [N6Q], the protein stability index turned out to be 2.71.

In the case of EEILKNISDFGRQQLLPPFPSLHQ [N4L], the protein stability index came out at 2.69.

For EEIWKNISDFGRQQLLPPFPSLHQ [N4W], the protein stability index is 2.15.

In the case of EEIDKNISDFGRQQLLPPFPSLHQ [N4D], the protein stability index came to 3.26.

Regarding EEIKKNISDFGRQQLLPPFPSLHQ [N4K], the protein stability index was 2.55.

On to EEIEKNISDFGRQQLLPPFPSLHQ [N4E], for which the protein stability index was 2.86.

As to EEICKNISDFGRQQLLPPFPSLHQ [N4C], the protein stability index was 2.45.

Consider EEINANISDFGRQQLLPPFPSLHQ [K5A], for which the protein stability index worked out at 3.05.

In the case of EEINLNISDFGRQQLLPPFPSLHQ [K5L], the protein stability index stood at 2.72.

Take EEINCNISDFGRQQLLPPFPSLHQ [K5C]: the protein stability index is 2.54.

On to EEINPNISDFGRQQLLPPFPSLHQ [K5P], for which the protein stability index came to 3.06.

For EEINKNISDFGIQQLLPPFPSLHQ [R12I], the protein stability index was found to be 2.93.

As for EEINKNISDFGTQQLLPPFPSLHQ [R12T], the protein stability index was 3.52.

As to EEINKNISDFGWQQLLPPFPSLHQ [R12W], the protein stability index amounted to 2.24.

In the case of EEINKNISDFGSQQLLPPFPSLHQ [R12S], the protein stability index was 3.12.

In the case of EEINKNISDFGFQQLLPPFPSLHQ [R12F], the protein stability index was found to be 2.23.

Take EEINKNISDRGRQQLLPPFPSLHQ [F10R]: the protein stability index was 2.88.

As to EEINKNISDWGRQQLLPPFPSLHQ [F10W], the protein stability index is 2.59.

Regarding EEINKNISDDGRQQLLPPFPSLHQ [F10D], the protein stability index came to 3.91.

As for EEINKNISDFGRQQLLMPFPSLHQ [P17M], the protein stability index stood at 2.27.

For EEINKNISDFGRQQLLCPFPSLHQ [P17C], the protein stability index turned out to be 2.84.

Turning to EEINKNISDFGRQQLLLPFPSLHQ [P17L], the protein stability index was 2.21.

Take EEINKNISDFGRQQLLAPFPSLHQ [P17A]: the protein stability index is 2.79.

As for EEINKNISDFGRQQLLDPFPSLHQ [P17D], the protein stability index turned out to be 2.74.

EEINKNISDFGRQQLLKPFPSLHQ [P17K]: the protein stability index is 3.09.

As for EEINKNISDFGRQQLLHPFPSLHQ [P17H], the protein stability index worked out at 2.52.

For the variant EEINKNISDFGRQQLLTPFPSLHQ [P17T], the protein stability index turned out to be 2.41.

In the case of EEINKNISDFGRQQLLWPFPSLHQ [P17W], the protein stability index worked out at 2.02.

On to EEINKNISDFGRQQLLVPFPSLHQ [P17V], for which the protein stability index came to 2.18.

As for EEINKNISDFGRQQLLPPFPSLHP [Q24P], the protein stability index came to 3.43.

With EEINKNISDFGRQQLLPPFPSLHG [Q24G], the protein stability index was determined as 2.53.

On to EEINKNISDFGRQQLLPPFPSLHN [Q24N], for which the protein stability index was 2.9.

Take EEINKNISDFGRQQLLPPFPSLHC [Q24C]: the protein stability index turned out to be 1.91.

As to EEINKNISDFGRQQLLPPFPSLHA [Q24A], the protein stability index was determined as 2.42.

Take EEINKNISDFGRQQLLPPFPSLHM [Q24M]: the protein stability index amounted to 2.77.

On to EEINKNISDFGRQQLLPPFPSLHS [Q24S], for which the protein stability index was 2.5.

On to EEINKNISDFGRQQLEPPFPSLHQ [L16E], for which the protein stability index is 3.72.

Consider EEINKNISDFGRQQLPPPFPSLHQ [L16P], for which the protein stability index stood at 3.34.

For the variant EEINKNISDFGRQQLGPPFPSLHQ [L16G], the protein stability index was determined as 3.85.

As for EEINKNISDFGRQQLNPPFPSLHQ [L16N], the protein stability index was 3.71.

As for EEINKNISDFGRQQLRPPFPSLHQ [L16R], the protein stability index worked out at 3.23.

For the variant EEINKNISDFGRQQLVPPFPSLHQ [L16V], the protein stability index amounted to 3.33.

On to EEINKNISDFGRQQLSPPFPSLHQ [L16S], for which the protein stability index amounted to 3.73.

Consider EEINKNISDFGRQQLHPPFPSLHQ [L16H], for which the protein stability index came to 3.32.

For the variant EEINKNISDFGRQQLLPPFPPLHQ [S21P], the protein stability index amounted to 3.54.

In the case of EEINKNISDFGRQQLLPPFPHLHQ [S21H], the protein stability index came to 3.58.

Turning to EEINKNISDFGRQQLLPPFPLLHQ [S21L], the protein stability index was 2.9.

With EEINKNISDFGRQQLLPPFPELHQ [S21E], the protein stability index is 3.59.

As for EEINKNISDFGRQQLLPYFPSLHQ [P18Y], the protein stability index came out at 2.94.

Regarding EEINKNISDFGRQQLLPKFPSLHQ [P18K], the protein stability index worked out at 3.36.

EEINKNISDFGRQQLLPSFPSLHQ [P18S]: the protein stability index is 3.12.

EEINKNISDFGRQQLLPCFPSLHQ [P18C]: the protein stability index stood at 3.16.

In the case of EEINKNISDFGRQQLLPEFPSLHQ [P18E], the protein stability index is 3.66.

For the variant EEINKNISDFGRQQLLPQFPSLHQ [P18Q], the protein stability index is 3.63.
